Data set [1] addresses T1, peptide EEAEHKATKARLADK (SEQ ID NO:75) (not fully specified).
T1 chain: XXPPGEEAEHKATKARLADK

The target in data set [2] is T2, DAP-kinase 1 peptide KKRRTKSSRRGV (SEQ ID NO:175) (not fully specified).
T2 chain: KKRRTKSSRRGV

Data set [3] has as its target T3, serine/threonine-protein kinase PRP4 peptide RGRRSRSRLRRR (SEQ ID NO:199) (not fully specified).
T3 chain: RGRRSRSRLRRR

For data set [4], the target named is T4, myosin IF peptide KKERRRNSINRN (SEQ ID NO:174) (not fully specified).
T4 chain: KKERRRNSINRN

The target in data set [5] is T5, GRK6 peptide GNRKGKSKKWRQ (SEQ ID NO:192) (not fully specified).
T5 chain: GNRKGKSKKWRQ

Data set [6] deals with T6, HePTP peptide EQQRRALSFRQ (SEQ ID NO:200) (not fully specified).
T6 chain: EQQRRALSFRQ

For data set [7], the target named is T7, MAST4 peptide VRRSKKSKKKES (SEQ ID NO:203) (not fully specified).
T7 chain: VRRSKKSKKKES

Data set [8] concerns the target T8, casein kinase I gamma 2 peptide KRRKRKSLQRHK (SEQ ID NO:194) (not fully specified).
T8 chain: KRRKRKSLQRHK

Data set [9] deals with T9, BCL10 peptide SCRTSSRKRAGK (SEQ ID NO:216) (not fully specified).
T9 chain: SCRTSSRKRAGK

Data set [10] deals with T10, DOCK2 peptide VKLRRSKKRTKR (SEQ ID NO:170) (not fully specified).
T10 chain: VKLRRSKKRTKR

B1: PKC-theta (protein)
chain: MSPFLRIGLSNFDCGSCQSCQGEAVNPYCAVLVKEYVESENGQMYIQKKPTMYPPWDSTFDAHINKGRVMQIIVKGKNVDLISETTVELYSLAERCRKNNGKTEIWLELKPQGRMLMNARYFLEMSDTKDMNEFETEGFFALHQRRGAIKQAKVHHVKCHEFTATFFPQPTFCSVCHEFVWGLNKQGYQCRQCNAAIHKKCIDKVIAKCTGSAINSRETMFHKERFKIDMPHRFKVYNYKSPTFCEHCGTLLWGLARQGLKCDACGMNVHHRCQTKVANLCGINQKLMAEALAMIESTQQARCLRDTEQIFREGPVEIGLPCSIKNEARPPCLPTPGKREPQGISWESPLDEVDKMCHLPEPELNKERPSLQIKLKIEDFILHKMLGKGSFGKVFLAEFKKTNQFFAIKALKKDVVLMDDDVECTMVEKRVLSLAWEHPFLTHMFCTFQTKENLFFVMEYLNGGDLMYHIQSCHKFDLSRATFYAAEIILGLQFLHSKGIVYRDLKLDNILLDKDGHIKIADFGMCKENMLGDAKTNTFCGTPDYIAPEILLGQKYNHSVDWWSFGVLLYEMLIGQSPFHGQDEEELFHSIRMDNPFYPRWLEKEAKDLLVKLFVREPEKRLGVRGDIRQHPLFREINWEELERKEIDPPFRPKVKSPFDCSNFDKEFLNEKPRLSFADRALINSMDQNMFRNFSFMNPGMERLIS
In data set [1], B1 returned a Peptide phosphorylation by PKC-theta of 0. The in vitro phosphorylation (% of best substrate) in data set [2] was 80; in data set [3] it was 27; in data set [4] it was 83; in data set [5], 35; in data set [6], 26; in data set [7] it was 24. Moreover, the in vitro phosphorylation (% of best substrate) in data set [8] is 34; in [9], 11; in [10], 98.

For the origin of these results see patent US20050064507.
